Source: patent US20120213794A1 (published 2012)

Target: human PCSK9 (proprotein convertase subtilisin-kexin type 9), wild type (UniProt Q8NBP7 31-692)
Test: TR-FRET PCSK9-LDLR interaction inhibition

Chain of human PCSK9 (proprotein convertase subtilisin-kexin type 9), wild type (Q8NBP7 31-692): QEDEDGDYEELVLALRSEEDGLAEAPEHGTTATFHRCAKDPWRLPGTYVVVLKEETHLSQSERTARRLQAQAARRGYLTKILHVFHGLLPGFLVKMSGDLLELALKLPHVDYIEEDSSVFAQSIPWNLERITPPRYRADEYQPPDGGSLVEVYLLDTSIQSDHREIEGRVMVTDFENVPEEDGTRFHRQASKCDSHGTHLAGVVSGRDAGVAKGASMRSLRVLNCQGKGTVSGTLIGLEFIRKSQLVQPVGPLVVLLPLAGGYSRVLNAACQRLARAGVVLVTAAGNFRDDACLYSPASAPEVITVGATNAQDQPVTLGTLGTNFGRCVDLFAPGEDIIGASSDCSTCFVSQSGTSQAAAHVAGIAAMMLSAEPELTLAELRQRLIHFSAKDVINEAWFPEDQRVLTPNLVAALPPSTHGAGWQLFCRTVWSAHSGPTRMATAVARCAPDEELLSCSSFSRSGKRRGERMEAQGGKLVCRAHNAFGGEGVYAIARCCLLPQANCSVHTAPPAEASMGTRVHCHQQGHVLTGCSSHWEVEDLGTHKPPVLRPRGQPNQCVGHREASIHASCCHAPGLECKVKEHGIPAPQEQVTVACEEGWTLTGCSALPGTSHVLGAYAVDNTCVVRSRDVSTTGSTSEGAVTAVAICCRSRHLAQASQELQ

B1: AX211 IgG2 (antibody, V domains shown)
VH: QVQLLESGGGLVQPGGSLRLSCKASGYTFSRQGFTWVRQAPGKGLEWIGWIDPGNGGTRYNEKFKGKATISRDNSKNTLYLQMNSLRAEDTAVYYCARYRVGYSLDYWGQGTLVTVSS
VL: EIVLTQSPATLSLSPGERATITCRASQYVGSYLNWYQQKPGQAPRLLIYDASNRATGIPARFSGSGSGTDFTLTISSLEPEDFAVYYCQVWDSSPPVVFGGGTKVEIK
In the case of B1, the IC50 is reported as 4.8 nM.

B2: AX114 IgG2 (antibody, V domains shown)
VH: EVQLLESGGGLVQPGGSLRLSCKASGYTFSSYGMYWVRQAPGKGLEWIGWIDPGSGGTKYNEKFKGKATISRDNSKNTLYLQMNSLRAEDTAVYYCARERYGYYFDYWGQGTLVTVSS
VL: EIVLTQSPATLSLSPGERATITCRASQYVGTYLNWYQQKPGQAPRLLIYDASNRATGIPARFSGSGSGTDFTLTISSLEPEDFAVYYCQVWDSSPPVAFGGGTKVEIK
B2 was tested, and the IC50 was 5.9 nM.

B3: AX212 IgG2 (antibody, V domains shown)
VH: QVQLLESGGGLVQPGGSLRLSCKASGYTFSSYSFSWVRQAPGKGLEWIGYIDPGSGGTKYNQKFQGKATISRDNSKNTLYLQMNSLRAEDTAVYYCARQRVGYSLDYWGQGTLVTVSS
VL: EIVLTQSPATLSLSPGERATITCRASQYVGSYLNWYQQKPGQAPRLLIYDASNRATGIPARFSGSGSGTDFTLTISSLEPEDFAVYYCQVWDSSPPVVFGGGTKVEIK
In the case of B3, the IC50 is reported as 3.9 nM.

B4: AX213 IgG2 (antibody, V domains shown)
VH: EVQLLESGGGLVQPGGSLRLSCKASGYTFSRYGINWVRQAPGKGLEWIGRIDPGNGGTRYNEKFKGKATISRDNSKNTLYLQMNSLRAEDTAVYYCARANDGYSFDYWGQGTLVTVSS
VL: EIVLTQSPATLSLSPGERATITCRASQYVGSYLNWYQQKPGQAPRLLIYDASNRATGIPARFSGSGSGTDFTLTISSLEPEDFAVYYCQVWDSSPPVVFGGGTKVEIKR
With B4 the IC50 was 4.9 nM.

B5: AX210 IgG2 (antibody, V domains shown)
VH: QVQLLESGGGLVQPGGSLRLSCKASGYTFSSYSIYWVRQAPGKGLEWIGWIDPGNGGTRYNQKFQSKATISRDNSKNTLYLQMNSLRAEDTAVYYCARARVGYSLDYWGQGTLVTVSS
VL: EIVLTQSPATLSLSPGERATITCRASQYVGSYLNWYQQKPGQAPRLLIYDASNRATGIPARFSGSGSGTDFTLTISSLEPEDFAVYYCQVWDSSPPVVFGGGTKVEIK
B5 was tested, and the IC50 was 4.9 nM.
